Measured values reported in paper PMC5039685 (Theranostics, 2016).

Target: GST-Src (UniProt P12931 1-536)
Assay: pull-down

- binding result: binds
B1: (His)6-tagged EB1 (natural protein, UniProt Q15691 1-268, looked up)
chain: MAVNVYSTSVTSDNLSRHDMLAWINESLQLNLTKIEQLCSGAAYCQFMDMLFPGSIALKKVKFQAKLEHEYIQNFKILQAGFKRMGVDKIIPVDKLVKGKFQDNFEFVQWFKKFFDANYDGKDYDPVAARQGQETAVAPSLVAPALNKPKKPLTSSSAAPQRPISTQRTAAAPKAGPGVVRKNPGVGNGDDEAAELMQQVNVLKLTVEDLEKERDFYFGKLRNIELICQENEGENDPVLQRIVDILYATDEGFVIPDEGGPQEEQEEY
